Laboratory results as given in the supplement of paper PMC5998384.

Experiments:
HeLa Kyoto [1] = assay: melting temperature (median over replicates), in situ; higher = more thermally stable
HeLa Kyoto [2] = assay: solubility in G1/S (NP-40 vs SDS abundance) (log2 ratio); higher = more soluble; details: cell cycle stage: G1/S
HeLa Kyoto [3] = assay: solubility change mitosis vs G1/S (difference of NP-40 vs SDS log2 ratios) (log2 ratio difference); higher = more soluble in mitosis
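Wherever melting temperature (median over replicates), in situ is given: HeLa Kyoto cells synchronized by double thymidine or nocodazole block, proteins quantified by TMT10plex mass spectrometry, three independent biological replicates.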
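Wherever solubility change mitosis vs G1/S (difference of NP-40 vs SDS log2 ratios) is given: synchronized HeLa Kyoto cells (double thymidine block for G1/S, nocodazole release for mitosis), protein amounts in NP-40 versus SDS lysates quantified by mass spectrometry, three biological replicates.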
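Wherever solubility in G1/S (NP-40 vs SDS abundance) is given: HeLa Kyoto cells arrested at G1/S by double thymidine block, proteins quantified by TMT10plex mass spectrometry in mild NP-40 versus SDS extracts, three biological replicates.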

| Sequence | melting temperature (HeLa Kyoto [1]; cell cycle stage: G1/S) [°C] | melting temperature (HeLa Kyoto [1]; cell cycle stage: mitosis) [°C] | solubility in G1/S (log2) (HeLa Kyoto [2]) | solubility change mitosis (log2) (HeLa Kyoto [3]) |
| --- | --- | --- | --- | --- |
| MALFPAFAGLSEAPDGGSSRKELDWLSNPSFCVGSITSLSQQTEAAPAHVSEGLPLTRSHLKSESSDESDTNKKLKQTSRKKKKEKKKKRKHQHHKKTKRKHGPSSSSRSETDTDSEKDKPSRGVGGSKKESEEPNQGNNAAADTGHRFVWLEDIQAVTGETFRTDKKPDPANWEYKSLYRGDIARYKRKGDSCLGINPKKQCISWEGTSTEKKHSRKQVERYFTKKSVGLMNIDGVAISSKTEPPSSEPISFIPVKDLEDAAPVTTWLNPLGIYDQSTTHWLQGQGPPEQESKQPDAQPDSESAALKAKVEEFNRRVRENPRDTQLWMAFVAFQDEVMKSPGLYAIEEGEQEKRKRSLKLILEKKLAILERAIESNQSSVDLKLAKLKLCTEFWEPSTLVKEWQKLIFLHPNNTALWQKYLLFCQSQFSTFSISKIHSLYGKCLSTLSAVKDGSILSHPALPGTEEAMFALFLQQCHFLRQAGHSEKAISLFQAMVDFTFFKPDSVKDLPTKGQVEFFEPFWDSGEPRAGEKGARGWKAWMHQQERGGWVVINPDEDDDEPEEDDQEIKDKTLPRWQIWLAAERSRDQRHWRPWRPDKTKKQTEEDCEDPERQVLFDDIGQSLIRLSSHDLQFQLVEAFLQFLGVPSGFTPPASCLYLAMDENSIFDNGLYDEKPLTFFNPLFSGASCVGRMDRLGYPRWTRGQNREGEEFIRNVFHLVMPLFSGKEKSQLCFSWLQYEIAKVIWCLHTKNKKRLKSQGKNCKKLAKNLLKEPENCNNFCLWKQYAHLEWLLGNTEDARKVFDTALGMAGSRELKDSDLCELSLLYAELEVELSPEVRRAATARAVHILTKLTESSPYGPYTGQVLAVHILKARKAYEHALQDCLGDSCVSNPAPTDSCSRLISLAKCFMLFQYLTIGIDAAVQIYEQVFAKLNSSVFPEGSGEGDSASSQSWTSVLEAITLMHTSLLRFHMKVSVYPLAPLREALSQALKLYPGNQVLWRSYVQIQNKSHSASKTRRFFDTITRSAKPLEPWLFAIEAEKLRKRLVETVQRLDGREIHATIPETGLMHRIQALFENAMRSDSGSQCPLLWRMYLNFLVSLGNKERSKGVFYKALQNCPWAKVLYLDAVEYFPDEMQEILDLMTEKELRVRLPLEELELLLED [NRDE2] | 48.5 | 49 | -0.208 | -0.031 |
| MANSANTNTVPKLYRSVIEDVINDVRDIFLDDGVDEQVLMELKTLWENKLMQSRAVDGFHSEEQQLLLQVQQQHQPQQQQHHHHHHHQQAQPQQTVPQQAQTQQVLIPASQQATAPQVIVPDSKLIQHMNASNMSAAATAATLALPAGVTPVQQILTNSGQLLQVVRAANGAQYIFQPQQSVVLQQQVIPQMQPGGVQAPVIQQVLAPLPGGISPQTGVIIQPQQILFTGNKTQVIPTTVAAPTPAQAQITATGQQQPQAQPAQTQAPLVLQVDGTGDTSSEEDEDEEEDYDDDEEEDKEKDGAEDGQVEEEPLNSEDDVSDEEGQELFDTENVVVCQYDKIHRSKNKWKFHLKDGIMNLNGRDYIFSKAIGDAEW [GTF2A1] | 56.2 | 57.2 | -0.719 | 0.475 |
| MAQETNHSQVPMLCSTGCGFYGNPRTNGMCSVCYKEHLQRQNSSNGRISPPATSVSSLSESLPVQCTDGSVPEAQSALDSTSSSMQPSPVSNQSLLSESVASSQLDSTSVDKAVPETEDVQASVSDTAQQPSEEQSKSLEKPKQKKNRCFMCRKKVGLTGFECRCGNVYCGVHRYSDVHNCSYNYKADAAEKIRKENPVVVGEKIQKI [ZFAND6] | 56.7 |  | 0.396 | -0.182 |
| MASTGSQASDIDEIFGFFNDGEPPTKKPRKLLPSLKTKKPRELVLVIGTGISAAVAPQVPALKSWKGLIQALLDAAIDFDLLEDEESKKFQKCLHEDKNLVHVAHDLIQKLSPRTSNVRSTFFKDCLYEVFDDLESKMEDSGKQLLQSVLHLMENGALVLTTNFDNLLELYAADQGKQLESLDLTDEKKVLEWAQEKRKLSVLHIHGVYTNPSGIVLHPAGYQNVLRNTEVMREIQKLYENKSFLFLGCGWTVDDTTFQALFLEAVKHKSDLEHFMLVRRGDVDEFKKLRENMLDKGIKVISYGDDYADLPEYFKRLTCEISTRGTSAGMVREGQLNGSSAAHSEIRGCST [FAM118B] | 49.3 | 50.5 | 0.418 | -0.123 |
| MAVSGFTLGTCILLLHISYVANYPNGKVTQSCHGMIPEHGHSPQSVPVHDIYVSQMTFRPGDQIEVTLSGHPFKGFLLEARNAEDLNGPPIGSFTLIDSEVSQLLTCEDIQGSAVSHRSASKKTEIKVYWNAPSSAPNHTQFLVTVVEKYKIYWVKIPGPIISQPNAFPFTTPKATVVPLPTLPPVSHLTKPFSASDCGNKKFCIRSPLNCDPEKEASCVFLSFTRDDQSVMVEMSGPSKGYLSFALSHDQWMGDDDAYLCIHEDQTVYIQPSHLTGRSHPVMDSRDTLEDMAWRLADGVMQCSFRRNITLPGVKNRFDLNTSYYIFLADGAANDGRIYKHSQQPLITYEKYDVTDSPKNIGGSHSVLLLKVHGALMFVAWMTTVSIGVLVARFFKPVWSKAFLLGEAAWFQVHRMLMFTTTVLTCIAFVMPFIYRGGWSRHAGYHPYLGCIVMTLAVLQPLLAVFRPPLHDPRRQMFNWTHWSMGTAARIIAVAAMFLGMDLPGLNLPDSWKTYAMTGFVAWHVGTEVVLEVHAYRLSRKVEILDDDRIQILQSFTAVETEGHAFKKAVLAIYVCGNVTFLIIFLSAINHL [FRRS1] | 58.8 |  | 0.0918 | 0.186 |
| MDLHMMNCELLATCSALGYLEGDTYHKEPDCLESVKDLIRYLRHEDETRDVRQQLGAAQILQSDLLPILTQHHQDKPLFDAVIRLMVNLTQPALLCFGNLPKEPSFRHHFLQVLTYLQAYKEAFASEKAFGVLSETLYELLQLGWEERQEEDNLLIERILLLVRNILHVPADLDQEKKIDDDASAHDQLLWAIHLSGLDDLLLFLASSSAEEQWSLHVLEIVSLMFRDQNPEQLAGVGQGRLAQERSADFAELEVLRQREMAEKKTRALQRGNRHSRFGGSYIVQGLKSIGERDLIFHKGLHNLRNYSSDLGKQPKKVPKRRQAARELSIQRRSALNVRLFLRDFCSEFLENCYNRLMGSVKDHLLREKAQQHDETYYMWALAFFMAFNRAASFRPGLVSETLSVRTFHFIEQNLTNYYEMMLTDRKEAASWARRMHLALKAYQELLATVNEMDISPDEAVRESSRIIKNNIFYVMEYRELFLALFRKFDERCQPRSFLRDLVETTHLFLKMLERFCRSRGNLVVQNKQKKRRKKKKKVLDQAIVSGNVPSSPEEVEAVWPALAEQLQCCAQNSELSMDSVVPFDAASEVPVEEQRAEAMVRIQDCLLAGQAPQALTLLRSAREVWPEGDVFGSQDISPEEEIQLLKQILSAPLPRQQGPEERGAEEEEEEEEEEEEELQVVQVSEKEFNFLDYLKRFACSTVVRAYVLLLRSYQQNSAHTNHCIVKMLHRLAHDLKMEALLFQLSVFCLFNRLLSDPAAGAYKELVTFAKYILGKFFALAAVNQKAFVELLFWKNTAVVREMTEGYGSLDDRSSSRRAPTWSPEEEAHLRELYLANKDVEGQDVVEAILAHLNTVPRTRKQIIHHLVQMGLADSVKDFQRKGTHIVLWTGDQELELQRLFEEFRDSDDVLGHIMKNITAKRSRARIVDKLLALGLVAERRELYKKRQKKLASSILPNGAESLKDFCQEDLEEEENLPEEDSEEEEEGGSEAEQVQGSLVLSNENLGQSLHQEGFSIPLLWLQNCLIRAADDREEDGCSQAVPLVPLTEENEEAMENEQFQQLLRKLGVRPPASGQETFWRIPAKLSPTQLRRAAASLSQPEEEQKLQPELQPKVPGEQGSDEEHCKEHRAQALRALLLAHKKKAGLASPEEEDAVGKEPLKAAPKKRQLLDSDEEQEEDEGRNRAPELGAPGIQKKKRYQIEDDEDD [TIMELESS] | 49.5 | 49.2 | -0.204 | -0.0762 |
| MDNLSSEEIQQRAHQITDESLESTRRILGLAIESQDAGIKTITMLDEQKEQLNRIEEGLDQINKDMRETEKTLTELNKCCGLCVCPCNRTKNFESGKAYKTTWGDGGENSPCNVVSKQPGPVTNGQLQQPTTGAASGGYIKRITNDAREDEMEENLTQVGSILGNLKDMALNIGNEIDAQNPQIKRITDKADTNRDRIDIANARAKKLIDS [SNAP23] | 54.8 | 54 | -0.00465 | 0.381 |
| MDTLDRVVKPKTKRAKRFLEKREPKLNENIKNAMLIKGGNANATVTKVLKDVYALKKPYGVLYKKKNITRPFEDQTSLEFFSKKSDCSLFMFGSHNKKRPNNLVIGRMYDYHVLDMIELGIENFVSLKDIKNSKCPEGTKPMLIFAGDDFDVTEDYRRLKSLLIDFFRGPTVSNIRLAGLEYVLHFTALNGKIYFRSYKLLLKKSGCRTPRIELEEMGPSLDLVLRRTHLASDDLYKLSMKMPKALKPKKKKNISHDTFGTTYGRIHMQKQDLSKLQTRKMKGLKKRPAERITEDHEKKSKRIKKN [RPF2] |  | 53.4 | -2.68 | 1.42 |
| MEADSPAGPGAPEPLAEGAAAEFSSLLRRIKGKLFTWNILKTIALGQMLSLCICGTAITSQYLAERYKVNTPMLQSFINYCLLFLIYTVMLAFRSGSDNLLVILKRKWWKYILLGLADVEANYVIVRAYQYTTLTSVQLLDCFGIPVLMALSWFILHARYRVIHFIAVAVCLLGVGTMVGADILAGREDNSGSDVLIGDILVLLGASLYAISNVCEEYIVKKLSRQEFLGMVGLFGTIISGIQLLIVEYKDIASIHWDWKIALLFVAFALCMFCLYSFMPLVIKVTSATSVNLGILTADLYSLFVGLFLFGYKFSGLYILSFTVIMVGFILYCSTPTRTAEPAESSVPPVTSIGIDNLGLKLEENLQETHSAVL [SLC35F2] |  | 56.1 | 0.147 | -0.182 |
| MEDSGKTFSSEEEEANYWKDLAMTYKQRAENTQEELREFQEGSREYEAELETQLQQIETRNRDLLSENNRLRMELETIKEKFEVQHSEGYRQISALEDDLAQTKAIKDQLQKYIRELEQANDDLERAKRATIMSLEDFEQRLNQAIERNAFLESELDEKENLLESVQRLKDEARDLRQELAVQQKQEKPRTPMPSSVEAERTDTAVQATGSVPSTPIAHRGPSSSLNTPGSFRRGLDDSTGGTPLTPAARISALNIVGDLLRKVGALESKLASCRNLVYDQSPNRTGGPASGRSSKNRDGGERRPSSTSVPLGDKGLDTSCRWLSKSTTRSSSSC [NDE1] | 54.1 | 53.7 | 0.236 | 0.568 |
| MEEYHRHCDEVGFNAEEAHNIVKECVDGVLGGEDYNHNNINQWTASIVEQSLTHLVKLGKAYKYIVTCAVVQKSAYGFHTASSCFWDTTSDGTCTVRWENRTMNCIVNVFAIAIVL [DYNLT3] | 53.3 | 54.1 | -0.189 | -0.243 |
